Here are results for six sequences from the Immune Epitope Database (IEDB).

One experiment has as its target HLA-B*35:01. In words: IEDB peptide-MHC binding, purified MHC/direct/fluorescence; filed as Kd, often an IC50 or EC50 that approximates it; ≥ and ≤ were set here for values at or beyond the usual limits of such assays.
The target of the next experiment is HLA-B*58:01. Described as above.
The next experiment addresses HLA-A*11:01. Described as above.
In a further experiment the target is HLA-A*03:01. The experiment is described as above.
The target in a further experiment is HLA-A*69:01. Described as above.
For another experiment, the target named is HLA-B*44:02. Described as above.
A further experiment addresses HLA-A*02:01. The description is as above.
The target in a further experiment is HLA-B*08:01. The description is as above.
The target of a further experiment is HLA-A*24:03. Described as above.
A further experiment has as its target HLA-B*40:01. Described as above.
The target in experiment [1] is HLA-B*15:01. Described as above.
The target of a further experiment is HLA-B*07:02. The experiment is described as above.
In experiment [2] the target is HLA-A*01:01. Described as above.
The target of another experiment is HLA-A*26:01. The description is as above.
A further experiment has as its target HLA-A*30:01. The description is as above.
The target in another experiment is HLA-A*31:01. Described as above.
The next experiment has as its target HLA-B*27:05. The experiment is described as above.
A further experiment has as its target HLA-B*48:01. Described as above.
Another experiment deals with HLA-B*08:02. The experiment is described as above. Conditions: source organism: Giardia lamblia ATCC 50803.
The next experiment addresses HLA-B*18:01. Described as above.
The next experiment deals with HLA-A*26:03. The description is as above.
For a further experiment, the target named is HLA-B*46:01. Described as above. Particulars: source organism: Giardia lamblia ATCC 50803.
Another experiment deals with HLA-A*26:02. Described as above.
The target in experiment [3] is HLA-B*57:01. In words: IEDB peptide-MHC binding, purified MHC/competitive/fluorescence; filed as Kd, often an IC50 or EC50 that approximates it; ≥ and ≤ were set here for values at or beyond the usual limits of such assays. Conditions: source organism: Giardia lamblia ATCC 50803.
Experiment [4] has as its target HLA-A*68:02. The experiment is described as above. Conditions: source organism: Giardia lamblia ATCC 50803.
Experiment [5] deals with HLA-B*15:01. Described as above. Conditions: source organism: Giardia lamblia ATCC 50803.
Experiment [6] deals with HLA-B*15:17. The description is as above. Particulars: source organism: Giardia lamblia ATCC 50803.
Experiment [7] concerns the target HLA-A*01:01. The experiment is described as above. Conditions: source organism: Giardia lamblia ATCC 50803.
The target of experiment [8] is HLA-B*57:01. In words: IEDB peptide-MHC binding, purified MHC/direct/fluorescence; filed as Kd, often an IC50 or EC50 that approximates it; ≥ and ≤ were set here for values at or beyond the usual limits of such assays. Particulars: source organism: Vibrio vulnificus YJ016.
The target in another experiment is HLA-B*73:01. Described as above. Particulars: source organism: Vibrio vulnificus YJ016.
The target of experiment [9] is HLA-A*68:02. The description is as above. Conditions: source organism: Vibrio vulnificus YJ016.
A further experiment concerns the target HLA-B*39:01. The experiment is described as above. Conditions: source organism: Vibrio vulnificus YJ016.
Experiment [10] addresses HLA-B*15:17. The experiment is described as above. Conditions: source organism: Vibrio vulnificus YJ016.
The mark [11] stands for this setting: source organism: Rickettsia prowazekii.
[12] abbreviates: source organism: Giardia lamblia ATCC 50803.
The mark [13] stands for this setting: source organism: Giardia intestinalis.
Where [14] appears, read: source organism: Vibrio vulnificus YJ016.
[15] abbreviates: source organism: Escherichia coli O157:H7.

As a reminder, the Kd is the constant that tells how readily two partners part at equilibrium. Low values mean a tighter complex, high ones a looser complex. QFAGGSFDF: the Kd with HLA-B*35:01 (setting [11]) was 0.0141 µM; with HLA-B*58:01 (setting [11]), 0.0416 µM; in the experiment with HLA-A*11:01 (setting [11]) it was no less than 10 µM; with HLA-A*03:01 (setting [11]), no less than 20 µM; with HLA-A*69:01 (setting [11]), no less than 20 µM; with HLA-B*44:02 (setting [11]) it was no less than 20 µM. The Kd was no less than 20 µM with HLA-A*02:01 (setting [11]); no less than 20 µM in the experiment with HLA-B*08:01 (setting [11]); 0.336 µM with HLA-A*24:03 (setting [11]); no less than 20 µM with HLA-B*40:01 (setting [11]); 0.35 µM with HLA-B*15:01 [1] (setting [11]); no less than 20 µM with HLA-B*07:02 (setting [11]). Also, the Kd with HLA-A*01:01 [2] (setting [11]) and with HLA-A*26:01 (setting [11]) was no less than 20 µM throughout.

Consider FMGRLGPEY, for which the Kd is 0.117 µM with HLA-B*35:01 (setting [12]); no less than 20 µM with HLA-B*58:01 (setting [12]); no less than 20 µM with HLA-A*11:01 (setting [12]); no less than 20 µM in the experiment with HLA-A*03:01 (setting [12]); no less than 20 µM with HLA-A*69:01 (setting [12]); no less than 20 µM in the experiment with HLA-B*44:02 (setting [12]). In addition, the Kd was 16.1 µM with HLA-A*30:01 (setting [12]); no less than 20 µM in the experiment with HLA-A*02:01 (setting [12]); no less than 20 µM with HLA-B*08:01 (setting [12]); no less than 5 µM with HLA-A*24:03 (setting [12]); no less than 20 µM with HLA-B*40:01 (setting [12]); 0.14 µM with HLA-B*15:01 [1] (setting [12]). Also, the Kd is 4.09 µM with HLA-A*01:01 [2] (setting [12]), no less than 20 µM in the experiment with HLA-A*31:01 (setting [12]), no less than 20 µM with HLA-A*26:01 (setting [12]) and no less than 20 µM with HLA-B*27:05 (setting [12]).

Consider KSNRIPFLY, for which the Kd was no less than 20 µM with HLA-B*48:01 (setting [12]); 0.002 µM with HLA-B*58:01 (setting [12]); 0.007 µM with HLA-A*11:01 (setting [12]); 0.022 µM with HLA-A*03:01 (setting [12]); no less than 20 µM in the experiment with HLA-A*02:01 (setting [12]); no less than 20 µM with HLA-B*08:01 (setting [12]). In addition, the Kd with HLA-B*08:02, with HLA-B*18:01 (setting [12]), in the experiment with HLA-B*40:01 (setting [12]), with HLA-B*07:02 (setting [12]), with HLA-A*26:03 (setting [12]) and in the experiment with HLA-B*46:01 was no less than 20 µM throughout. Moreover, the Kd in the experiment with HLA-A*31:01 (setting [12]) was 2.37 µM; with HLA-A*26:02 (setting [12]), no less than 20 µM; with HLA-A*26:01 (setting [12]) it was no less than 20 µM; with HLA-B*27:05 (setting [12]) it was no less than 20 µM; with HLA-B*57:01 [3] it was 0.243 µM; with HLA-A*68:02 [4], no less than 20 µM. In addition, the results for the Kd in the experiment with HLA-B*15:01 [5], with HLA-B*15:17 [6] and with HLA-A*01:01 [7] were 0.212 µM, 0.01 µM and 0.203 µM, respectively.

Take DYAMHGTVF: the Kd is 0.0621 µM with HLA-B*35:01 (setting [13]); no less than 10 µM with HLA-B*58:01 (setting [13]); no less than 20 µM with HLA-A*03:01 (setting [13]); no less than 20 µM with HLA-A*69:01 (setting [13]); no less than 20 µM with HLA-B*44:02 (setting [13]); no less than 58.5 µM in the experiment with HLA-A*30:01 (setting [13]). Moreover, the Kd was no less than 20 µM in the experiment with HLA-A*02:01 (setting [13]); 14.6 µM with HLA-B*08:01 (setting [13]); 2.36 µM with HLA-A*24:03 (setting [13]); no less than 20 µM with HLA-B*40:01 (setting [13]); 3.8 µM with HLA-B*15:01 [1] (setting [13]); 8.71 µM with HLA-B*07:02 (setting [13]). The Kd with HLA-A*01:01 [2] (setting [13]), with HLA-A*26:01 (setting [13]) and with HLA-B*27:05 (setting [13]) was no less than 20 µM each time.

In the case of KRFYQTVGF, the Kd is no less than 20 µM with HLA-B*48:01 (setting [14]); no less than 20 µM with HLA-B*57:01 [8]; no less than 20 µM in the experiment with HLA-B*58:01 (setting [14]); no less than 20 µM in the experiment with HLA-A*11:01 (setting [14]); 4 µM with HLA-B*73:01; no less than 20 µM in the experiment with HLA-A*03:01 (setting [14]). Also, the Kd with HLA-A*69:01 (setting [14]), in the experiment with HLA-A*02:01 (setting [14]), with HLA-B*08:01 (setting [14]), with HLA-A*68:02 [9], in the experiment with HLA-B*39:01 and in the experiment with HLA-B*18:01 (setting [14]) was no less than 20 µM each time. Further, the equilibrium dissociation constant (Kd) with HLA-B*15:01 [1] (setting [14]), with HLA-B*07:02 (setting [14]), with HLA-A*26:03 (setting [14]), with HLA-B*15:17 [10], with HLA-A*01:01 [2] (setting [14]) and in the experiment with HLA-A*31:01 (setting [14]) was no less than 20 µM throughout. Moreover, the Kd is no less than 20 µM with HLA-A*26:02 (setting [14]) and 0.0895 µM with HLA-B*27:05 (setting [14]).

As for PSSKPDWFY, the Kd in the experiment with HLA-B*35:01 (setting [15]) was 1.04 µM; with HLA-B*58:01 (setting [15]), no less than 20 µM; in the experiment with HLA-A*11:01 (setting [15]), no less than 20 µM; with HLA-A*03:01 (setting [15]), no less than 20 µM; with HLA-A*69:01 (setting [15]), no less than 20 µM; with HLA-B*44:02 (setting [15]), no less than 20 µM. In addition, the Kd in the experiment with HLA-A*02:01 (setting [15]) was no less than 20 µM; in the experiment with HLA-B*08:01 (setting [15]), no less than 20 µM; in the experiment with HLA-A*24:03 (setting [15]) it was no less than 20 µM; with HLA-B*40:01 (setting [15]), no less than 20 µM; with HLA-B*15:01 [1] (setting [15]), 15.2 µM; with HLA-B*07:02 (setting [15]), no less than 20 µM. For the same sequence, the Kd in the experiment with HLA-A*01:01 [2] (setting [15]) was 0.0197 µM; with HLA-A*31:01 (setting [15]) it was no less than 20 µM; with HLA-A*26:01 (setting [15]) it was no less than 20 µM; in the experiment with HLA-B*27:05 (setting [15]), no less than 20 µM.
